Source: US20150299296A1 (Chugai, published 2015)
Each block holds one binder with its values, some of them ahead of it.

Assays:
[1] = molecular target: T1, human FcγRIIb extracellular domain with C-terminal His tag (human, UniProt P31994 43-217); test: SPR
T1 construct: extracellular domain; For crystals it was expressed with kifunensine and trimmed with Endo F1; also called FcgRIIb; FcγRIIb extracellular region
T1 sequence (looked up): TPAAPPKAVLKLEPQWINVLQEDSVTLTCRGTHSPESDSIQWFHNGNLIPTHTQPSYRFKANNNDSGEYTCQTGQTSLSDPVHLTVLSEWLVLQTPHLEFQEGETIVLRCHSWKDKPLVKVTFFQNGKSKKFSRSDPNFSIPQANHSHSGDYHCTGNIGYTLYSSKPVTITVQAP

[2] = molecular target: T2, human FcγRIa extracellular domain with C-terminal His tag (human, UniProt P12314 16-292); test: SPR
T2 construct: Whole entry named; also called FcgRIa; FcgIa
T2 sequence (P12314 16-292): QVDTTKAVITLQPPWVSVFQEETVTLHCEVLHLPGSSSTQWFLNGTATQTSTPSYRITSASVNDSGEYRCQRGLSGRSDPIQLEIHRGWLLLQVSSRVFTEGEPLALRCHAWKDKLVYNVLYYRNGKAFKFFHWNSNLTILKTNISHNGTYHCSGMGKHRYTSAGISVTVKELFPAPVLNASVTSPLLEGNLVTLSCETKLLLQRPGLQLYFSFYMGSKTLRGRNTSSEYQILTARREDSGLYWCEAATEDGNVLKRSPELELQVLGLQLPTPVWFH

[3] = molecular target: T1, human FcγRIIb extracellular domain with …; test: SPR KD ratio; reference is the same variant's KD for FcγRIIaR
[4] = molecular target: T1, human FcγRIIb extracellular domain with …; test: SPR KD ratio
[5] = molecular target: T1, human FcγRIIb extracellular domain with …; test: SPR (Biacore): amount of FcγRIIb bound per captured antibody, relative to the pre-altered antibody GpH7-B3/GpL16-k0 = 100 (Reference Examples 2, 3 and 6)
[6] = molecular target: T2, human FcγRIa extracellular domain with …; test: SPR (Biacore): antibody captured on the chip, FcγR as analyte; amount bound divided by amount of antibody captured, relative to the antibody without mutation in B3 = 100 (Reference Examples 2 and 3)

B2: IL6R-BP479/IL6R-L (antibody)
chain 1: QVQLQESGPGLVKPSETLSLTCAVSGHSISHDHAWSWVRQPPGEGLEWIGFISYSGITNYNPSLQGRVTISRDNSKNTLYLQMNSLRAEDTAVYYCARSLARTTAMDYWGEGTLVTVSSASTKGPSVFPLAPSSKSTSGGTAALGCLVKDYFPEPVTVSWNSGALTSGVHTFPAVLQSSGLYSLSSVVTVPSSSLGTQTYICNVNHKPSNTKVDKKVEPKSCDKTHTCPPCPAPDLLGDDSVFLFPPKPKDTLMISRTPEVTCVVIDLAEEDGEVKFNWYVDGVEVHNAKTKPREEQYNSTYRVVSVLTVLHQDWLNGKEYKCKVSNKALPAPIEKTISKAKGQPREPQVYTLPPSRDELTKNQVSLTCLVKGFYPSDIAVEWESNGQPENNYKTTPPVLDSDGSFFLYSKLTVDKSRWQQGNVFSCSVMHEALHNHYTQESLSLSP
chain 2: not shown
- KD (IIaR)/KD (IIb) [3]: 16.1

B3: IL6R-BP493/IL6R-L (antibody, human IgG1, kappa)
heavy: QVQLQESGPGLVKPSETLSLTCAVSGHSISHDHAWSWVRQPPGEGLEWIGFISYSGITNYNPSLQGRVTISRDNSKNTLYLQMNSLRAEDTAVYYCARSLARTTAMDYWGEGTLVTVSSASTKGPSVFPLAPSSKSTSGGTAALGCLVKDYFPEPVTVSWNSGALTSGVHTFPAVLQSSGLYSLSSVVTVPSSSLGTQTYICNVNHKPSNTKVDKKVEPKSCDKTHTCPPCPAPELLGGDSVFLFPPKPKDTLMISRTPEVTCVVIDVAEEDGEVKFNWYVDGVEVHNAKTKPREEQDNSTYRVVSVLTVLHQDWLNGKEYKCKVSNKALPAPIEKTISKAKGQPREPQVYTLPPSRDELTKNQVSLTCLVKGFYPSDIAVEWESNGQPENNYKTTPPVLDSDGSFFLYSKLTVDKSRWQQGNVFSCSVMHEALHNHYTQESLSLSP
light: not shown
- fold binding against the native form [4]: 147 fold

B4: IL6R-BP495/IL6R-L (antibody, human IgG1, kappa)
heavy: QVQLQESGPGLVKPSETLSLTCAVSGHSISHDHAWSWVRQPPGEGLEWIGFISYSGITNYNPSLQGRVTISRDNSKNTLYLQMNSLRAEDTAVYYCARSLARTTAMDYWGEGTLVTVSSASTKGPSVFPLAPSSKSTSGGTAALGCLVKDYFPEPVTVSWNSGALTSGVHTFPAVLQSSGLYSLSSVVTVPSSSLGTQTYICNVNHKPSNTKVDKKVEPKSCDKTHTCPPCPAPELLGDDSVFLFPPKPKDTLMISRTPEVTCVVVDVGEEDGEVKFNWYVDGVEVHNAKTKPREEQDNSTYRVVSVLTVLHQDWLNGKEYKCKVSNKALPRPIEKTISKAKGQPREPQVYTLPPSRDELTKNQVSLTCLVKGFYPSDIAVEWESNGQPENNYKTTPPVLDSDGSFFLYSKLTVDKSRWQQGNVFSCSVMHEALHNHYTQESLSLSP
light: not shown
- fold binding (IL6R-B3/IL6R-L = 1) [4]: 321 times

B5: IL6R-BP489/IL6R-L (antibody, human IgG1, kappa)
heavy: QVQLQESGPGLVKPSETLSLTCAVSGHSISHDHAWSWVRQPPGEGLEWIGFISYSGITNYNPSLQGRVTISRDNSKNTLYLQMNSLRAEDTAVYYCARSLARTTAMDYWGEGTLVTVSSASTKGPSVFPLAPSSKSTSGGTAALGCLVKDYFPEPVTVSWNSGALTSGVHTFPAVLQSSGLYSLSSVVTVPSSSLGTQTYICNVNHKPSNTKVDKKVEPKSCDKTHTCPPCPAPDLLGDDSVFLFPPKPKDTLMISRTPEVTCVVIDVAEEDGEVKFNWYVDGVEVHNAKTKPREEQDNSTYRVVSVLTVLHQDWLNGKEYKCKVSNKALPRPIEKTISKAKGQPREPQVYTLPPSRDELTKNQVSLTCLVKGFYPSDIAVEWESNGQPENNYKTTPMVLDSDGSFFLYSKLTVDKSRWQQGNVFSCSVMHEALHNHYTQESLSLSP
light: not shown
- fold binding (IL6R-B3/IL6R-L = 1) [4]: 3100 times

B6: IL6R-BP492/IL6R-L (antibody, human IgG1, kappa)
heavy: QVQLQESGPGLVKPSETLSLTCAVSGHSISHDHAWSWVRQPPGEGLEWIGFISYSGITNYNPSLQGRVTISRDNSKNTLYLQMNSLRAEDTAVYYCARSLARTTAMDYWGEGTLVTVSSASTKGPSVFPLAPSSKSTSGGTAALGCLVKDYFPEPVTVSWNSGALTSGVHTFPAVLQSSGLYSLSSVVTVPSSSLGTQTYICNVNHKPSNTKVDKKVEPKSCDKTHTCPPCPAPELLGGDSVFLFPPKPKDTLMISRTPEVTCVVIDVAEEDGEVKFNWYVDGVEVHNAKTKPREEQYNSTYRVVSVLTVLHQDWLNGKEYKCKVSNKALPAPIEKTISKAKGQPREPQVYTLPPSRDELTKNQVSLTCLVKGFYPSDIAVEWESNGQPENNYKTTPPVLDSDGSFFLYSKLTVDKSRWQQGNVFSCSVMHEALHNHYTQESLSLSP
light: not shown
- fold binding against the native form [4]: 131 fold

B8: IL6R-BP568/IL6R-L (antibody)
heavy: QVQLQESGPGLVKPSETLSLTCAVSGHSISHDHAWSWVRQPPGEGLEWIGFISYSGITNYNPSLQGRVTISRDNSKNTLYLQMNSLRAEDTAVYYCARSLARTTAMDYWGEGTLVTVSSASTKGPSVFPLAPSSKSTSGGTAALGCLVKDYFPEPVTVSWNSGALTSGVHTFPAVLQSSGLYSLSSVVTVPSSSLGTQTYICNVNHKPSNTKVDKKVEPKSCDKTHTCPPCPAPDLLGGDSVFLFPPKPKDTLMISRTPEVTCVVIDVAEEDGEVKFNWYVDGVEVHNAKTKPREEQYNSTYRVVSVLTVLHQDWLNGKEYKCKVSNKALPAPIEKTISKAKGQPREPQVYTLPPSRDELTKNQVSLTCLVKGFYPSDIAVEWESNGQPENNYKTTPPVLDSDGSFFLYSKLTVDKSRWQQGNVFSCSVMHEALHNHYTQESLSLSP
light: not shown
- fold binding against the native form [4]: 211 fold

Further lines, results first:

- binding result [1]: binds
- binding result [2]: binds
B1: IL6R-BP436/IL6R-L (antibody, human IgG1, kappa)
heavy: QVQLQESGPGLVKPSETLSLTCAVSGHSISHDHAWSWVRQPPGEGLEWIGFISYSGITNYNPSLQGRVTISRDNSKNTLYLQMNSLRAEDTAVYYCARSLARTTAMDYWGEGTLVTVSSASTKGPSVFPLAPSSKSTSGGTAALGCLVKDYFPEPVTVSWNSGALTSGVHTFPAVLQSSGLYSLSSVVTVPSSSLGTQTYICNVNHKPSNTKVDKKVEPKSCDKTHTCPPCPAPDLLGDDSVFLFPPKPKDTLMISRTPEVTCVVVDVAEEDGEVKFNWYVDGVEVHNAKTKPREEQDNSTYRVVSVLTVLHQDWLNGKEYKCKVSNKALPRPTEKTISKAKGQPREPQVYTLPPSRDELTKNQVSLTCLVKGFYPSDIAVEWESNGQPENNYKTTPPVLDSDGSFFLYSKLTVDKSRWQQGNVFSCSVMHEALHNHYTQESLSLSP
light: not shown

- binding result [2]: binds
- KD (IIaR)/KD (IIb) [3]: 64.4
B7: IL6R-BP567/IL6R-L (antibody, human IgG1, kappa)
heavy: QVQLQESGPGLVKPSETLSLTCAVSGHSISHDHAWSWVRQPPGEGLEWIGFISYSGITNYNPSLQGRVTISRDNSKNTLYLQMNSLRAEDTAVYYCARSLARTTAMDYWGEGTLVTVSSASTKGPSVFPLAPSSKSTSGGTAALGCLVKDYFPEPVTVSWNSGALTSGVHTFPAVLQSSGLYSLSSVVTVPSSSLGTQTYICNVNHKPSNTKVDKKVEPKSCDKTHTCPPCPAPDLLGGDSVFLFPPKPKDTLMISRTPEVTCVVIDVAEEDGEVKFNWYVDGVEVHNAKTKPREEQDNSTYRVVSVLTVLHQDWLNGKEYKCKVSNKALPAPIEKTISKAKGQPREPQVYTLPPSRDELTKNQVSLTCLVKGFYPSDIAVEWESNGQPENNYKTTPPVLDSDGSFFLYSKLTVDKSRWQQGNVFSCSVMHEALHNHYTQESLSLSP
light: not shown

- binding result [5]: binds
B9: G237Y (antibody, human IgG1, kappa)
heavy chain: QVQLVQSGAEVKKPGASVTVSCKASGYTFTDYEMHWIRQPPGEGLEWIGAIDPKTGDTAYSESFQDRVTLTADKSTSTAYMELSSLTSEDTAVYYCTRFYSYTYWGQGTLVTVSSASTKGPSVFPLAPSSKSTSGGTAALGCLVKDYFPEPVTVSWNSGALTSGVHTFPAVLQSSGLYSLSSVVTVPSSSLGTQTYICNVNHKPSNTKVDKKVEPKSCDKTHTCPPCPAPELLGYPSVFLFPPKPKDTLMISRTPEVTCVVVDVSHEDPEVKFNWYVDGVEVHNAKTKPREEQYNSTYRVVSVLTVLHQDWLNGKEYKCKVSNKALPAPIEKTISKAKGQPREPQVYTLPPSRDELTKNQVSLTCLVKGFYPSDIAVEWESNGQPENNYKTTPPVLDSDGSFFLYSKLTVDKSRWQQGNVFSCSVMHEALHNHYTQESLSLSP
light chain: DIVMTQSPLSLPVTPGEPASISCQASESLVHSNRNTYLHWYLQKPGQSPQLLIYKVSNRFSGVPDRFSGSGSGTDFTLKISRVEAEDVGVYYCSQNTHVPPTFGQGTKVEIERTVAAPSVFIFPPSDEQLKSGTASVVCLLNNFYPREAKVQWKVDNALQSGNSQESVTEQDSKDSTYSLSSTLTLSKADYEKHKVYACEVTHQGLSSPVTKSFNRGEC
notes: also called GpH7-B3 with G237Y / GpL16-k0 (no P238D)

- binding result [6]: binds
B10: mutation B (antibody, human IgG1, kappa)
heavy chain: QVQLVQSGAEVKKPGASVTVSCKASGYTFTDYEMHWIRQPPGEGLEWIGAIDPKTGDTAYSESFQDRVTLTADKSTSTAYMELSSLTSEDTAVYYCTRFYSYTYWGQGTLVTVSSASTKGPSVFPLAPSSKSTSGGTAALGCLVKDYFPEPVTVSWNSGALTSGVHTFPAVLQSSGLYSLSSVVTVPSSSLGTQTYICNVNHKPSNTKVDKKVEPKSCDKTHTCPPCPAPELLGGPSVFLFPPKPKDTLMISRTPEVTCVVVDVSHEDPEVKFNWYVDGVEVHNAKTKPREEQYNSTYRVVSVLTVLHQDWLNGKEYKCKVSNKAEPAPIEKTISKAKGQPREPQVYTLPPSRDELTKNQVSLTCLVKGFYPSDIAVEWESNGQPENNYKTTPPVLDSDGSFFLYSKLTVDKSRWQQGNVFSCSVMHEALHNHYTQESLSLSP
light chain: DIVMTQSPLSLPVTPGEPASISCQASESLVHSNRNTYLHWYLQKPGQSPQLLIYKVSNRFSGVPDRFSGSGSGTDFTLKISRVEAEDVGVYYCSQNTHVPPTFGQGTKVEIERTVAAPSVFIFPPSDEQLKSGTASVVCLLNNFYPREAKVQWKVDNALQSGNSQESVTEQDSKDSTYSLSSTLTLSKADYEKHKVYACEVTHQGLSSPVTKSFNRGEC
notes: Legend: mutation B = Leu at 328 (EU numbering) substituted with Glu

- binding result [5]: binds
B11: L234W (antibody, human IgG1, kappa)
heavy chain: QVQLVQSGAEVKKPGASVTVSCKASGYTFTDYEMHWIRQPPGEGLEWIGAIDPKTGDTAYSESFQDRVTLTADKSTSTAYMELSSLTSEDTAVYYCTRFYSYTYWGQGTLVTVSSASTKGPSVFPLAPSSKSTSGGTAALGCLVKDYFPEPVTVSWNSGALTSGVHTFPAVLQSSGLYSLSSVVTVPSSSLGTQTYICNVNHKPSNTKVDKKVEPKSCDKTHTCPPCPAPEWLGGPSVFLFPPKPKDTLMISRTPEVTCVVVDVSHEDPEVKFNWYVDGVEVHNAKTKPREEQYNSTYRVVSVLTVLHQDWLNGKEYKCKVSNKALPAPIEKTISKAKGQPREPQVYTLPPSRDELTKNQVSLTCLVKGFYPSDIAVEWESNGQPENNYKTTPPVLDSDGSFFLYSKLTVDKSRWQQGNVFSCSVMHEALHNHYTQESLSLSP
light chain: DIVMTQSPLSLPVTPGEPASISCQASESLVHSNRNTYLHWYLQKPGQSPQLLIYKVSNRFSGVPDRFSGSGSGTDFTLKISRVEAEDVGVYYCSQNTHVPPTFGQGTKVEIERTVAAPSVFIFPPSDEQLKSGTASVVCLLNNFYPREAKVQWKVDNALQSGNSQESVTEQDSKDSTYSLSSTLTLSKADYEKHKVYACEVTHQGLSSPVTKSFNRGEC
notes: also called GpH7-B3 with L234W / GpL16-k0 (no P238D)

- binding result [5]: binds
B12: S239D (antibody, human IgG1, kappa)
heavy chain: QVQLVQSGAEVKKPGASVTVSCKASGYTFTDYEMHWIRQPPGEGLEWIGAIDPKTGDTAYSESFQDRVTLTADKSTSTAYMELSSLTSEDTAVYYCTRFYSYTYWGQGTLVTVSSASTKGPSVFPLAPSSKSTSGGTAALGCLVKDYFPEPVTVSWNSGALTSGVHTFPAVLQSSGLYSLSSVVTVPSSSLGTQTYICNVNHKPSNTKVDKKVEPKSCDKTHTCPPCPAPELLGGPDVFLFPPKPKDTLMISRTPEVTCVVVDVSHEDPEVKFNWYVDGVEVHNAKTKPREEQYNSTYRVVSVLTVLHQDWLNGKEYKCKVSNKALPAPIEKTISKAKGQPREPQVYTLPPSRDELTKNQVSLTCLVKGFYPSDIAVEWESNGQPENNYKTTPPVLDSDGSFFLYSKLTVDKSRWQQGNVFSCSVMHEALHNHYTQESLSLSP
light chain: DIVMTQSPLSLPVTPGEPASISCQASESLVHSNRNTYLHWYLQKPGQSPQLLIYKVSNRFSGVPDRFSGSGSGTDFTLKISRVEAEDVGVYYCSQNTHVPPTFGQGTKVEIERTVAAPSVFIFPPSDEQLKSGTASVVCLLNNFYPREAKVQWKVDNALQSGNSQESVTEQDSKDSTYSLSSTLTLSKADYEKHKVYACEVTHQGLSSPVTKSFNRGEC
notes: also called GpH7-B3 with S239D / GpL16-k0 (no P238D)

- binding result [5]: binds
B13: L234Y (antibody, human IgG1, kappa)
heavy chain: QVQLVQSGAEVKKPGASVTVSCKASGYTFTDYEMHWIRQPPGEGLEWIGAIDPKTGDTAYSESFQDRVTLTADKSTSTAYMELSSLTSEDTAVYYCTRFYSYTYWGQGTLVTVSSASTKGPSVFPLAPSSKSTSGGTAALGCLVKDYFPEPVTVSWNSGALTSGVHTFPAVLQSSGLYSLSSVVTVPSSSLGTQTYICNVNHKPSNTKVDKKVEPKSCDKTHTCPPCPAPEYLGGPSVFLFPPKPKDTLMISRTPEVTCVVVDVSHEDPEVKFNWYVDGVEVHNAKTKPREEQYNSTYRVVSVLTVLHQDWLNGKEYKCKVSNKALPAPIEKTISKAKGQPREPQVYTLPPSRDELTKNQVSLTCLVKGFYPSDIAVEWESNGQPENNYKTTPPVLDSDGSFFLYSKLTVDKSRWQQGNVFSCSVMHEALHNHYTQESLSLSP
light chain: DIVMTQSPLSLPVTPGEPASISCQASESLVHSNRNTYLHWYLQKPGQSPQLLIYKVSNRFSGVPDRFSGSGSGTDFTLKISRVEAEDVGVYYCSQNTHVPPTFGQGTKVEIERTVAAPSVFIFPPSDEQLKSGTASVVCLLNNFYPREAKVQWKVDNALQSGNSQESVTEQDSKDSTYSLSSTLTLSKADYEKHKVYACEVTHQGLSSPVTKSFNRGEC
notes: also called GpH7-B3 with L234Y / GpL16-k0 (no P238D)
